Test results taken from patent US20260167712A1, “INHIBITORY ANTIBODIES AGAINST GLUT1” (ICOSAGEN CELL FACTORY OÜ, priority 2022, published 2026).
Entries after “also recorded” stand apart in the source; their conditions may differ.

Tests used:
[1] = tested on: MIAPACA2 pancreatic cancer cell line; assay: Cell proliferation inhibition assay (Incucyte), MIAPACA2; format: cell-based; settings: co-treatment with IACS-010759, compared to single agents, FIG. 11C
Procedure: (§1) Incucyte S3 Live cell analysis instrument and Cell-by-Cell analysis software module (Sartorius) were used to evaluate the effect of anti-SLC2A1 antibodies on cancer cell proliferation label-free (FIGS. 5-11). MCF7, PC3 or PANC1 or MIAPACA2 cells were plated on flat bottom tissue culture 96-well plate in […] medium (Ximbio) supplemented with 2.5% FBS. Cells were incubated overnight and 0.02 nM to 13 μM anti-SLC2A1 antibodies, anti-HEL isotype control, PBS or BAY-876 were added to the cells alone or in combination with metformin (CaymanChem), phenformin (Sigma Aldrich) or IACS-010759 (CaymanChem). Cell confluence or object count was measured for 24 to 96 hours with Incucyte S3 and normalized to timepoint 0 h or 4h. anti-SLC2A1 antibodies inhibit cancer cell proliferation alone and especially in combination with complex-I inhibitors metformin, phenformin and IACS-010759. Exemplary antibodies 1G2 #9, 2A2 #12, 2E5 #22, 5G5 #30, 6F12 #33, 7C3 #39 and R14 #54 were used in proliferation assays.

[2] = tested on: MiaPaca2 xenograft tumors; assay: Antitumor efficacy against MiaPaca2 xenograft tumors; format: in vivo, mice; settings: 6F12 #33 200 ug per mouse IP every 72 h plus daily Phenformin 20 mg/kg IP, versus phenformin alone, FIG. 12A
Excerpt: (§2) Hsd:Athymic Nude-Foxn1^nu mice (10 per group) were inoculated with 5e6 MiaPaca2 cells/mouse subcutaneously.

[3] = Body weight in MiaPaca2 xenograft study; format: in vivo, mice; settings: during treatments, FIG. 12B
Excerpt: as §2

[4] = tested on: PC3 prostate cancer cell line; assay: Cell proliferation inhibition assay (Incucyte), PC3; format: cell-based; settings: co-treatment with IACS-010759, compared to single agents, FIG. 11A
Procedure: as §1

Molecule | MIAPACA2 cell growth in combination with IACS-010759 [1] | tumor growth, cotreatment with phenformin [2] | body weight [3] | PC3 cell growth in combination with IACS-010759 [4]
6F12 #33 (antibody, V domains shown) VH: AVTLDESGGGLQTPGGALSLVCKASGFTFSDHAIFWVRQAPDKGLEFVAAISSGTGSWTAYATVVKGRATISRDNGQSTVRLQLNNLRAADTATYYCAKGAGSACCYAGSIDAWGHGTEVIVSS VL: ALTQPSSVSANPGETVKITCSGGSSSSYYGWYQQKSPGSAPVTLIYYNDKRPSDIPSRFSGSKSGSTATLTITGVQVEDEAVYYCGTGDGSFAIFGAGTTLTVL | dramatic growth reduction | statistically significant tumor growth inhibition | No changes; also recorded: remained unchanged | –
2E5 #22 (antibody, V domains shown) VH: AVTLDESGGGLQTPGGALSLVCKASGFTFSTKGMGWVRQTPGKGLEWVAGISSMRRYTYYAPAVKGRATISRDNGQSTVRLQLSSLRAEDSGTYYCARDATYCSWTTSTCGWSGGTIDAWGHGTEVIVSS VL: ALTQPSSVSANLGGTVKITCSGGSGNYGWYQQKSPGSVPVTVIYSNDKRPSDIPSRFSGSGSGSTATLTITGVQVEDEAVYFCGSRDSSYVGLFGAGTTLTVL | – | – | – | strong synergistic growth inhibition
